Entries after “also recorded” stand apart in the source; their conditions may differ.

This is an account of results in patent publication US6492106B1, “Mammalian proteins that bind to FKBP12 in a rapamycin-dependent fashion” (The Johns Hopkins University, priority 1994, dated 2002).

The target of assay [1] is FKBP12 / RAFT1 (245 kDa) and RAFT2 (35 kDa) (Rattus norvegicus, UniProt P42346+Q62658). As to the kind of experiment: Crosslinking assay: 32P-FKBP12 with heparin column eluate of rat brain cytosol.
Assay [2] has as its target RAFT2 (Rapamycin And FKBP12 Target 2), 35 kDa protein. Nature of the assay: DSS crosslinking in heparin column eluate with 1 uM rapamycin plus 1 uM FK506 (small-molecule competitor).
For assay [3], the target named is RAFT1 (Rapamycin And FKBP12 Target 1), 245 kDa protein (rat) (UniProt P42346). The description is as above.

In the case of `C=CC[C@@H]1/C=C(\C)C[C@H](C)C[C@H](OC)[C@H]2O[C@@](O)(C(=O)C(=O)N3CCCC[C@H]3C(=O)O[C@H](/C(C)=C/[C@@H]3CC[C@@H](O)[C@H](OC)C3)[C@H](C)[C@@H](O)CC1=O)[C@H](C)C[C@@H]2OC` [FK506, reference compound], in assay [1] (equal concentrations (1 μM) of rapamycin and FK506), the “reduction of the intensities of the crosslinked bands” value is listed as “approximately 50%”. As to “32P-radiolabeled FKBP12 probe (recombinant rat FKBP12 with two consensus PKA sites added at the N-terminus, cleaved from GST with thrombin) (from UniProt Q62658 1-108)”, the reduction of crosslinked band intensity in assay [2] and in assay [3] was 50% each time.

B1: unlabeled FKBP12: immunophilin receptor protein for FK506 and rapamycin, used unlabeled in excess (1 μM) as competitor (protein)
chain: GVQVETISSGDGRTFPKRGQTCVVHYTGMLEDGKKFDSSRDRNKPFKFTLGKQEVIRGWEEGVAQMSVGQRAKLIISPDYAYGATGHPGIIPPHATLVFDVELLKLE
For B1, the “antagonism of rapamycin-induced crosslinking of 32P-FKBP12 to the target proteins” value in assay [1] (competitor at 1 μM, all rapamycin concentrations tested) is reported as “prevent the rapamycin-dependent association; also recorded: completely suppressed the appearance of the crosslinked bands”.
